Results taken from US6482605.

Molecular target: EGF receptor (endogenous, in PC12 cell lysate)

B1: histidine-tagged PTP20 wild-type (6 histidine residues at the N-terminus), tetracycline-controlled expression in PC12 cells (protein)
chain: MHHHHHHSRQSDLVRSFLEQQEARDHRKGAILAREFSDIKARSVAWKTEGVCSTKAGSQQGNSKKNRYKDVVPYDETRVILSLLQEEGHGDYINANFIRGTDGSQAYIATQGPLPHTLLDFWRLVWEFGIKVILMACQETENGRRKCERYWAQEREPLQAGPFCITLTKETALTSDITLRTLQVTFQKESRPVHQLQYMSWPDHGVPSSSDHILTMVEEARCLQGLGPGPLCVHCSAGCGRTGVLCAVDYVRQLLLTQTIPPNFSLFEVVLEMRKQRPAAVQTEEQYRFLYHTVAQLFSRTLQNNSPLYQNLKENRAPICKDSSSLRTSSALPATSRPLGGVLRSISVPGPPTLPMADTYAVVQKRGASGSTGPGTRAPNSTDTPIYSQVAPRIQRPVSHTENAQGTTALGRVPADENPSGPDAYEEVTDGAQTGGLGFNLRIGRPKGPRDPPAEWTRV
- tyrosine phosphorylation of EGF receptor upon EGF stimulation (precipitation, anti-phosphotyrosine blot): Overexpression of PTP20 wt resulted in dramatic dephosphorylation of EGF receptor
